# Reference: publication PMC5430550 (Scientific Reports, 2017)
# Substitutions are numbered along the chain they refer to. In names and notes the source's numbering stands.
# B1: ribosomal large-subunit methyltransferase H (RlmH), wild type, His6-tagged (enzyme, E. coli, UniProt P0A8I8 2-155, looked up)
# chain: KLQLVAVGTKMPDWVQTGFTEYLRRFPKDMPFELIEIPAGKRGKNADIKRILDKEGEQMLAAAGKNRIVTLDIPGKPWDTPQLAAELERWKLDGRDVSLLIGGPEGLSPACKAAAEQSWSLSALTLPHPLVRVLVAESLYRAWSITTNHPYHRE
# notes: RlmH (YbeA) of E. coli, 155 amino acids; rlmH gene from ASKA clone JW0631 in pET24b; no cleavage of the tag is described; Limits 2-155 follow from 'first methionine is replaced' and '155 amino acids'; also called YbeA; WT; source: E. coli BLR(DE3), purified (nickel IMAC twice, SEC on Superdex75); not shown: His6, N-terminal, kept
# B2: RlmH R154A, His6-tagged (enzyme, E. coli, UniProt P0A8I8 2-155, looked up)
# chain: B1 chain with R153A
# notes: RlmH (YbeA) of E. coli, 155 amino acids; source: E. coli BLR(DE3), purified as the wild-type protein; not shown: His6, N-terminal, kept
# B3: RlmH H153F, His6-tagged (enzyme, E. coli, UniProt P0A8I8 2-155, looked up)
# chain: B1 chain with H152F
# notes: as for B2
# B4: RlmH Y152F, His6-tagged (enzyme, E. coli, UniProt P0A8I8 2-155, looked up)
# chain: B1 chain with Y151F
# notes: as for B2
# Key:
# [1] = molecular target: RlmH (ribosomal large-subunit methyltransferase H) (Escherichia coli, UniProt P0A8I8, E138Q); test: isothermal titration calorimetry, sequential binding model; conditions: 50 mM sodium phosphate pH 6.8, 200 mM KCl, 5% glycerol, 1 mM β-mercaptoethanol, 25 °C; first SAM site of the dimer; read-out: Calculated K D1
# Text: (§1) isothermal titration calorimetry, sequential binding model on RlmH (ribosomal large-subunit methyltransferase H)
# [2] = molecular target: RlmH (ribosomal large-subunit methyltransferase H) (Escherichia coli, UniProt P0A8I8, E138A); test: as above; conditions: 50 mM sodium phosphate pH 6.8, 200 mM KCl, 5% glycerol, 1 mM β-mercaptoethanol, 25 °C; first SAM site of the dimer; read-out: Calculated K D1
# Text: as §1
# [3] = molecular target: T1, RlmH (ribosomal large-subunit methyltransferase H) (Escherichia coli, UniProt P0A8I8); test: as above; conditions: 50 mM sodium phosphate pH 6.8, 200 mM KCl, 5% glycerol, 1 mM β-mercaptoethanol, 25 °C; first SAM site of the dimer; read-out: Calculated K D1
# T1 construct: full length (155 residues, ~17 kDa), first Met replaced by MHHHHHHV (N-terminal His6 tag kept), expressed in E. coli BLR(DE3), homodimer
# Text: as §1
# [4] = molecular target: T1, RlmH (ribosomal large-subunit methyltransferase H); test: X-ray crystal structure, […] Å; conditions: co-crystallised with 2 mM sinefungin, pH 8.5, 16 °C; SAM-binding pocket, two ligands per dimer
# [5] = tested on: RlmH R154A (Escherichia coli (ASKA clone JW0631)); test: competition; conditions: pseudouridine 1915 lacking N3-methylation (delta-rlmH), Single-turnover competitive methylation assay, mutant pre-incubated with heat-activated 70S ribosomes 20 min at 25 C before wild-type RlmH-[3H]SAM
# [6] = tested on: RlmH Y152F (Escherichia coli (ASKA clone JW0631)); test: competition; conditions: pseudouridine 1915 lacking N3-methylation (delta-rlmH), Single-turnover competitive methylation assay, mutant pre-incubated with heat-activated 70S ribosomes 20 min at 25 C before wild-type RlmH-[3H]SAM
# [7] = tested on: RlmH E138Q (Escherichia coli (ASKA clone JW0631)); test: competition; conditions: pseudouridine 1915 lacking N3-methylation (delta-rlmH), Single-turnover competitive methylation assay, mutant pre-incubated with heat-activated 70S ribosomes 20 min at 25 C before wild-type RlmH-[3H]SAM
# [8] = tested on: RlmH H153F (Escherichia coli (ASKA clone JW0631)); test: competition; conditions: pseudouridine 1915 lacking N3-methylation (delta-rlmH), Single-turnover competitive methylation assay, mutant pre-incubated with heat-activated 70S ribosomes 20 min at 25 C before wild-type RlmH-[3H]SAM
# [9] = tested on: RlmH E138A (Escherichia coli (ASKA clone JW0631)); test: competition; conditions: pseudouridine 1915 lacking N3-methylation (delta-rlmH), Single-turnover competitive methylation assay, mutant pre-incubated with heat-activated 70S ribosomes 20 min at 25 C before wild-type RlmH-[3H]SAM
# [10] = molecular target: the molecule itself; test: SEC-MALS; Superdex S-200 HR10/30; 50 mM potassium phosphate pH 7.0, 300 mM KCl, 2 mM DTT, 5% glycerol; dialyzed protein injected at ~20 and ~200 µM (0.35 mg/ml and 3.85 mg/ml); same result at both
# RlmH (ribosomal large-subunit methyltransferase H) (Escherichia coli, UniProt P0A8I8, E138Q), sequence (P0A8I8 2-155 E138Q): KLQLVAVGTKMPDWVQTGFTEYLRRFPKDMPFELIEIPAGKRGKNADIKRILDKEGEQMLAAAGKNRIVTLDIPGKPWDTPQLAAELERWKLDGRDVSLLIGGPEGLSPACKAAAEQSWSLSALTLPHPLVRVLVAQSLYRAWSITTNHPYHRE
# RlmH (ribosomal large-subunit methyltransferase H) (Escherichia coli, UniProt P0A8I8, E138A), sequence (P0A8I8 2-155 E138A): as the sequence (P0A8I8 2-155 E138Q) above, with Q137A counted along it
molecule,measurement,setting,value
"C[S+](CC[C@H](N)C(=O)O)C[C@H]1O[C@@H](n2cnc3c(N)ncnc32)[C@H](O)[C@@H]1O (stereo partly shown) [SAM, S-adenosyl-methionine]",Kd,[1],7.05 ± 0.56 µM
same,Kd,[2],6.7 ± 0.77 µM
same,Kd,[3],5.58 ± 0.31 µM
"Nc1ncnc2c1ncn2[C@@H]1O[C@H](C[C@@H](N)CC[C@H](N)C(=O)O)[C@@H](O)[C@H]1O [SFG, sinefungin]","X-ray crystal structure, 2.1 Å",[4],crystal structures of E. coli RlmH bound to the cofactor SAM or to the inhibitor sinefungin
"delta-rlmH 70S ribosome (23S rRNA helix 69, pseudouridine 1915)",IC50,[5],40 µM
same,IC50,[6],3 µM
same,IC50,[7],3 µM
same,IC50,[8],3 µM
same,IC50,[9],3 µM
B1,stoichiometry N,[10],2
B2,stoichiometry N,[10],2
B3,stoichiometry N,[10],2
B4,stoichiometry N,[10],2
